Test results taken from patent US20190338038A1 (CELLERANT THERAPEUTICS, published 2019).
Positions count from the first letter of the chain named. Where two headings read alike, the source gives them in different places.

How the values were obtained:
[1] = target: human interleukin 1 receptor accessory protein, membrane-bound form on cells (human) (UniProt Q9NPH3); assay: flow cytometry on primary AML sample 13-AML-02 PB, antibody at 2 ug/mL per paragraph 390
[2] = target: human interleukin 1 receptor accessory protein, membrane-bound form on cells (human) (UniProt Q9NPH3); assay: FACS on EOL-1 cells, FITC; antibody concentration not given
[3] = target: T1, recombinant mouse IL1-RAP (mouse, UniProt Q61730 21-359, limits assumed); assay: FACS (GeoMean), bar series mIL1RAP
T1 sequence (looked up): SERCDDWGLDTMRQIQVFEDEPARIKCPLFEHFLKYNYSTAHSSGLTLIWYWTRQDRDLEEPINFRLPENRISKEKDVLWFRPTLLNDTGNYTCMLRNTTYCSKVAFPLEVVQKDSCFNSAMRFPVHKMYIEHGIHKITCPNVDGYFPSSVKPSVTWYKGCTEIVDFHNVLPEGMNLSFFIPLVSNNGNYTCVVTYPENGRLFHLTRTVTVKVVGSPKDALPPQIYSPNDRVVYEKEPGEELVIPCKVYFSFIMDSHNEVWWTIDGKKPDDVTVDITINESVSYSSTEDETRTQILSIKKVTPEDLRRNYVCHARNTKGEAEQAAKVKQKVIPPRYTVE

[4] = target: T2, human interleukin 1 receptor accessory protein, membrane-bound form on cells (human, UniProt Q9NPH3 21-570); assay: cell-based or functional assay
T2 sequence: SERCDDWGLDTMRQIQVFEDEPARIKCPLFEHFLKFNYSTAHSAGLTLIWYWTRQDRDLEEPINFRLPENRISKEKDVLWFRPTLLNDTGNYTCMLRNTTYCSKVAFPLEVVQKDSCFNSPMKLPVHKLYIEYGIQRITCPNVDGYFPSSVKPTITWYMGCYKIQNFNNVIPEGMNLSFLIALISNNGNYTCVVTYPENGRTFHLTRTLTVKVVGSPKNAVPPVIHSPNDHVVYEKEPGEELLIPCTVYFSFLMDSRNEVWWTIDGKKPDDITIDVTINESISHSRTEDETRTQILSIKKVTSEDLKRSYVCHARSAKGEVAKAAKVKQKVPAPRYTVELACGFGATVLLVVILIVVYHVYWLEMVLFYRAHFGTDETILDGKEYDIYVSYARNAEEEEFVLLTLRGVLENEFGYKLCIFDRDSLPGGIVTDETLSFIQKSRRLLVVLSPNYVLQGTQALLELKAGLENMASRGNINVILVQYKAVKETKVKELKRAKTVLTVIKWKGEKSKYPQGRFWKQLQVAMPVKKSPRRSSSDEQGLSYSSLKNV

[5] = target: T2, human interleukin 1 receptor accessory …; assay: cell-based or functional assay; remark: listed apart in the source
[6] = target: T2, human interleukin 1 receptor accessory …; assay: FACS titration on HNT-34 cells
[7] = target: T2, human interleukin 1 receptor accessory …; assay: FACS titration on IL1-RAP transfected 293 cells
[8] = target: T2, human interleukin 1 receptor accessory …; assay: FACS titration on HNT-34 cells in PBS, no competitor
[9] = target: T2, human interleukin 1 receptor accessory …; assay: FACS titration on EOL-1 cells
[10] = target: T3, IL1-RAP (antigen of the kinetic measurements of Tables 5A and 5B) (human, UniProt Q9NPH3 21-359, limits assumed); assay: kinetics, Table 5B; method and antigen form not stated
T3 sequence: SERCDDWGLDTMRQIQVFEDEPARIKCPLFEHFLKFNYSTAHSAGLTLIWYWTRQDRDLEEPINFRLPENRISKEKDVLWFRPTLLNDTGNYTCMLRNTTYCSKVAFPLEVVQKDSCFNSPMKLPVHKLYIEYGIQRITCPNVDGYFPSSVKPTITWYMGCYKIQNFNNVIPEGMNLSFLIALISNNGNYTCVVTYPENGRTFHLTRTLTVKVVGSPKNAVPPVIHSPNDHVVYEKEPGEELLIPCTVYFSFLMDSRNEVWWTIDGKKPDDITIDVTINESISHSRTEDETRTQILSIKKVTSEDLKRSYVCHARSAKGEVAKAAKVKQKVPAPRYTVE

[11] = target: T2, human interleukin 1 receptor accessory …; assay: FACS on EOL-1 cells, FITC; antibody concentration not given
[12] = target: T3, IL1-RAP (antigen of the kinetic …); assay: kinetics, Table 5A; method and antigen form not stated

## mIgG (antibody)
[1]
  % of cells in the upper right quadrant (CD34 APC high, stain positive): 1.57%

B1: H54.9D7 HC3 / H54.9D7 LC1 (antibody, V domains shown)
VH: QVQLVQSGAEVKKPGASVKLSCKASGYIFITYWMNWVRQAPGQGLEWVGQIFPASGTTYYAQKFQGRATLTVDTSTSTAYMELSSLRSEDTAVYYCARTDFYRYDGGYALDYWGQGTLLTVSS
VL: DIQMTQSPSSLSASVGDRVTITCRASQSVSTSGYSSMHWYQQKPGKAPKLLIYYASDLESGVPSRFSGSGSGTDFTLTISSLQPEDFATYYCHHSWGIPMYTFGQGTKLEIKR
[2]
  MFI: 4.86

B2: h54.9D7 HC3 / h54.9D7 LC2 (antibody, V domains shown)
VH: B1 VH
VL: B1 VL with M4L, V19A, L82V
[2]
  MFI: 5.49

B3: Chi54.9D7 HC#1 / h54.9D7 LC1 (antibody, V domains shown)
VH: HVQLQQSGPELVRPGASVKLSCKASGYIFITYWMNWVKQRPGQGLEWVGQIFPASGTTYYNELFEGKATLTVDTSSNTAYMHLTSLTSEDSAVYYCARTDFYRYDGGYALDYWGQGTSLTVSS
VL: B1 VL
[2]
  MFI: 7.96

B4: Chi54.9D7 HC#1 / h54.9D7 LC2 (antibody, V domains shown)
VH: B3 VH
VL: B1 VL with M4L, V19A, L82V
[2]
  MFI: 7.8

B5: anti-IL1-RAP antibody clone 54.9D7 (antibody, V domains shown)
VH: B3 VH
VL: DIVLTQSPISLAVFLGQRATISCRASQSVSTSGYSSMHWYQQKAGQPPKLLIKYASDLESGVPVRFSGSGSGTDFILNIHPVEVEDIATYYCHHSWGIPMYTFGGGTKLEIKR
notes: Mouse monoclonal antibody from a hybridoma
[3]
  binding result: no binding (tested: not given)
[4]
  IC50 of inhibition of IL-1β-induced NF-κB signaling, HEK-Blue IL-1β cells: 0.0323 µg/mL
[5]
  % Inhibition at 10 ug/mL of IL-1β-induced NF-κB signaling, HEK-Blue IL-1β cells: 92.3%
  IC50 of inhibition of IL-1β-induced NF-κB signaling, HEK-Blue IL-1β cells: 0.03 µg/mL

B6: anti-IL1-RAP antibody clone 56.12G6 (antibody, V domains shown)
VH: RSNYSSLGAELVKPGASVTLSCEASGYTFTSYWIHWVKQRPGQGLEWIGEINPSHGHTTYNEKFKNKATLTVDKSSSTAYMQVSSLTSEDSAVYYCTRHYGSYYFDLWGQGTTLTVSS
VL: QIVLTQSPAIMSAFPGEKVTMTCRASSSVSYMHWYRQKSGTFPKRWIYDTSKLASGVPARFSGSGSGTSYSLTISSMEAEDAATYYCQQWSTNPITFGAGTKLELK
notes: Mouse monoclonal antibody
[6]
  EC50 (read off the curve): ~0.2 µg/mL
[3]
  binding result: no binding (tested: not given)
[7]
  EC50 (read off the curve): ~0.4 µg/mL
[8]
  EC50 (read off the curve): ~0.9 µg/mL
[9]
  EC50 (read off the curve): ~0.6 µg/mL

B7: humanized clone of 54.9D7 hH2L3 (antibody, V domains shown)
VH: B1 VH with L20V, A68V, L70M, A79V, L119V
VL: B1 VL with M4L, V19A, Y53K, L82V
notes: Humanized; also called 54.9D7 H2L3
[10]
  Kd: < 0.001 nM
  koff: < 1e-07 s⁻¹
  kon: 169000 M⁻¹ s⁻¹
[11]
  MFI: 124
[12]
  Kd: < 0.001 nM
  koff: < 1e-07 s⁻¹
  kon: 141000 M⁻¹ s⁻¹

B8: humanized clone of 54.9D7 hH1L3 (antibody, V domains shown)
VH: B1 VH with L20V, V48M, A68V, L70M, V72R, A79V, L119V
VL: B1 VL with M4L, V19A, Y53K, L82V
notes: Humanized; also called 54.9D7 H1L3
[10]
  Kd: 0.229 nM
  koff: 3.75e-05 s⁻¹
  kon: 164000 M⁻¹ s⁻¹
[11]
  MFI: 100
[12]
  Kd: 0.556 nM
  koff: 7.57e-05 s⁻¹
  kon: 136000 M⁻¹ s⁻¹

B9: humanized clone of 54.9D7 hH3L3 (antibody, V domains shown)
VH: B1 VH
VL: B1 VL with M4L, V19A, Y53K, L82V
notes: Humanized; also called 54.9D7 H3L3
[10]
  Kd: < 0.001 nM
  koff: < 1e-07 s⁻¹
  kon: 193000 M⁻¹ s⁻¹
[11]
  MFI: 94.3
[12]
  Kd: < 0.001 nM
  koff: < 1e-07 s⁻¹
  kon: 177000 M⁻¹ s⁻¹

B10: h54.9D7 HC2 / Chi54.9D7 LC#1 (antibody, V domains shown)
VH: B1 VH with L20V, A68V, L70M, A79V, L119V
VL: B5 VL
notes: also called humanized 54.9D7 HC2 with the chimeric light chain
[11]
  MFI: 75.1

B11: h54.9D7 HC1 / Chi54.9D7 LC#1 (antibody, V domains shown)
VH: B1 VH with L20V, V48M, A68V, L70M, V72R, A79V, L119V
VL: B5 VL
notes: also called humanized 54.9D7 HC1 with the chimeric light chain
[11]
  MFI: 21.3

B12: h54.9D7 HC3 / Chi54.9D7 LC#1 (antibody, V domains shown)
VH: B1 VH
VL: B5 VL
notes: also called humanized 54.9D7 HC3 with the chimeric light chain
[11]
  MFI: 20

B13: Chi54.9D7 HC#1 / h54.9D7 LC3 (antibody, V domains shown)
VH: B3 VH
VL: B1 VL with M4L, V19A, Y53K, L82V
notes: also called chimeric 54.9D7 heavy chain with humanized LC3
[11]
  MFI: 121
